Publication PMC8439434 (2021)
Read-outs that look alike come from different tables or passages of the source.

Tests used:
HLA-B*08:01 [1] = molecular target: T1, HLA-B*08:01 (human (endogenous in the Steinlin EBV …))
[2] = molecular target: HLA-C*07:01 purified from the Steinlin EBV transformed homozygous cell line (human (endogenous in the Steinlin EBV …))
HLA-B*08:01 [3] = molecular target: T1, HLA-B*08:01; remark: listed apart in the source

Binder	IC50 (HLA-B*08:01 [1])	IC50 [2]	IC50 (HLA-B*08:01 [3])
IRSSYIRVL [peptide 3424.0028 (IRSSYIRVL, DNA replication licensing factor MCM5 289-297)]	0.301 µM	–	–
SRGTSPARM [SARS-CoV-2 nucleocapsid peptide SRGTSPARM (R203/G204)]	–	> 50 µM	> 50 µM
